# Measured values published in PMC9487866 (Immunity, 2022).
# Biological target: Pfs48/45-6C wild type (Plasmodium falciparum 3D7, UniProt Q8I6T1)
# Test: BLI
# Details: both partners purified
# Pfs48/45-6C wild type, sequence (Q8I6T1 291-428): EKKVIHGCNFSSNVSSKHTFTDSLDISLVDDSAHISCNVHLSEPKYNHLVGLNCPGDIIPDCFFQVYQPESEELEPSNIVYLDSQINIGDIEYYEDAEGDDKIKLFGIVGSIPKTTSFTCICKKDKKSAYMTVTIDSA
binder,measurement,value
"TB31F Fab (Fab, V domains shown) VH: EVQLVQSGGGLVQPGGSLRLSCAASGFTFNNYWMSWVRQAPGKGLEWVSSISNIGGTIYYPDSVKGRFTISRDNSKNTLYLQMNSLRAEDTAVYYCTRDLRMSDYFDYWGQGTMVTVSS VL: NFMLTQPHSVSESPGKTVTISCTRSTGNIGSNYVSWYQQRPGSSPTTVIYRDDQRPSGVPDRFSGSIDRSSNSASLTISGLKTEDEADYYCHSYSTGMYIFGGGTKLTVL",Kd,3.1 nM
